B1: H183/L072 VL V27cT (antibody, name in Kabat numbering, V domains shown)
VH: QVQLVESGGGLVQPGRSLRLSCAASGFTFSNAWMHWVRQAPGKGLEWVAQIKDKGNAYAAYYAPSVKGRFTISRDDSKNSIYLQMNSLKTEDTAVYYCHYVHYASASTVLPAFGVDAWGQGTTVTVSS
VL: DIVMTQSPLSLPVTPGEPASISCQASQELTHMNRNTYLHWYQQKPGQAPRLLIYKVSNRFPGVPDRFSGSGSGTDFTLKISRVEAEDVGVYYCAQGTSVPFTFGQGTKLEIK
B2: H183/L072 VL V27cW (antibody, name in Kabat numbering, V domains shown)
VH: QVQLVESGGGLVQPGRSLRLSCAASGFTFSNAWMHWVRQAPGKGLEWVAQIKDKGNAYAAYYAPSVKGRFTISRDDSKNSIYLQMNSLKTEDTAVYYCHYVHYASASTVLPAFGVDAWGQGTTVTVSS
VL: DIVMTQSPLSLPVTPGEPASISCQASQELWHMNRNTYLHWYQQKPGQAPRLLIYKVSNRFPGVPDRFSGSGSGTDFTLKISRVEAEDVGVYYCAQGTSVPFTFGQGTKLEIK
B3: H183/L072 VL V27cY (antibody, name in Kabat numbering, V domains shown)
VH: QVQLVESGGGLVQPGRSLRLSCAASGFTFSNAWMHWVRQAPGKGLEWVAQIKDKGNAYAAYYAPSVKGRFTISRDDSKNSIYLQMNSLKTEDTAVYYCHYVHYASASTVLPAFGVDAWGQGTTVTVSS
VL: DIVMTQSPLSLPVTPGEPASISCQASQELYHMNRNTYLHWYQQKPGQAPRLLIYKVSNRFPGVPDRFSGSGSGTDFTLKISRVEAEDVGVYYCAQGTSVPFTFGQGTKLEIK
B4: H183/L072 VL V51A (antibody, name in Kabat numbering, V domains shown)
VH: QVQLVESGGGLVQPGRSLRLSCAASGFTFSNAWMHWVRQAPGKGLEWVAQIKDKGNAYAAYYAPSVKGRFTISRDDSKNSIYLQMNSLKTEDTAVYYCHYVHYASASTVLPAFGVDAWGQGTTVTVSS
VL: DIVMTQSPLSLPVTPGEPASISCQASQELVHMNRNTYLHWYQQKPGQAPRLLIYKASNRFPGVPDRFSGSGSGTDFTLKISRVEAEDVGVYYCAQGTSVPFTFGQGTKLEIK
B5: H183/L072 VL V51D (antibody, name in Kabat numbering, V domains shown)
VH: QVQLVESGGGLVQPGRSLRLSCAASGFTFSNAWMHWVRQAPGKGLEWVAQIKDKGNAYAAYYAPSVKGRFTISRDDSKNSIYLQMNSLKTEDTAVYYCHYVHYASASTVLPAFGVDAWGQGTTVTVSS
VL: DIVMTQSPLSLPVTPGEPASISCQASQELVHMNRNTYLHWYQQKPGQAPRLLIYKDSNRFPGVPDRFSGSGSGTDFTLKISRVEAEDVGVYYCAQGTSVPFTFGQGTKLEIK
B6: H183/L072 VL V51E (antibody, name in Kabat numbering, V domains shown)
VH: QVQLVESGGGLVQPGRSLRLSCAASGFTFSNAWMHWVRQAPGKGLEWVAQIKDKGNAYAAYYAPSVKGRFTISRDDSKNSIYLQMNSLKTEDTAVYYCHYVHYASASTVLPAFGVDAWGQGTTVTVSS
VL: DIVMTQSPLSLPVTPGEPASISCQASQELVHMNRNTYLHWYQQKPGQAPRLLIYKESNRFPGVPDRFSGSGSGTDFTLKISRVEAEDVGVYYCAQGTSVPFTFGQGTKLEIK
B7: H183/L072 VL V51G (antibody, name in Kabat numbering, V domains shown)
VH: QVQLVESGGGLVQPGRSLRLSCAASGFTFSNAWMHWVRQAPGKGLEWVAQIKDKGNAYAAYYAPSVKGRFTISRDDSKNSIYLQMNSLKTEDTAVYYCHYVHYASASTVLPAFGVDAWGQGTTVTVSS
VL: DIVMTQSPLSLPVTPGEPASISCQASQELVHMNRNTYLHWYQQKPGQAPRLLIYKGSNRFPGVPDRFSGSGSGTDFTLKISRVEAEDVGVYYCAQGTSVPFTFGQGTKLEIK
B8: H183/L072 VL V51H (antibody, name in Kabat numbering, V domains shown)
VH: QVQLVESGGGLVQPGRSLRLSCAASGFTFSNAWMHWVRQAPGKGLEWVAQIKDKGNAYAAYYAPSVKGRFTISRDDSKNSIYLQMNSLKTEDTAVYYCHYVHYASASTVLPAFGVDAWGQGTTVTVSS
VL: DIVMTQSPLSLPVTPGEPASISCQASQELVHMNRNTYLHWYQQKPGQAPRLLIYKHSNRFPGVPDRFSGSGSGTDFTLKISRVEAEDVGVYYCAQGTSVPFTFGQGTKLEIK
B9: H183/L072 VL V51I (antibody, name in Kabat numbering, V domains shown)
VH: QVQLVESGGGLVQPGRSLRLSCAASGFTFSNAWMHWVRQAPGKGLEWVAQIKDKGNAYAAYYAPSVKGRFTISRDDSKNSIYLQMNSLKTEDTAVYYCHYVHYASASTVLPAFGVDAWGQGTTVTVSS
VL: DIVMTQSPLSLPVTPGEPASISCQASQELVHMNRNTYLHWYQQKPGQAPRLLIYKISNRFPGVPDRFSGSGSGTDFTLKISRVEAEDVGVYYCAQGTSVPFTFGQGTKLEIK
B10: H183/L072 VL V51K (antibody, name in Kabat numbering, V domains shown)
VH: QVQLVESGGGLVQPGRSLRLSCAASGFTFSNAWMHWVRQAPGKGLEWVAQIKDKGNAYAAYYAPSVKGRFTISRDDSKNSIYLQMNSLKTEDTAVYYCHYVHYASASTVLPAFGVDAWGQGTTVTVSS
VL: DIVMTQSPLSLPVTPGEPASISCQASQELVHMNRNTYLHWYQQKPGQAPRLLIYKKSNRFPGVPDRFSGSGSGTDFTLKISRVEAEDVGVYYCAQGTSVPFTFGQGTKLEIK
B11: H183/L072 VL V51L (antibody, name in Kabat numbering, V domains shown)
VH: QVQLVESGGGLVQPGRSLRLSCAASGFTFSNAWMHWVRQAPGKGLEWVAQIKDKGNAYAAYYAPSVKGRFTISRDDSKNSIYLQMNSLKTEDTAVYYCHYVHYASASTVLPAFGVDAWGQGTTVTVSS
VL: DIVMTQSPLSLPVTPGEPASISCQASQELVHMNRNTYLHWYQQKPGQAPRLLIYKLSNRFPGVPDRFSGSGSGTDFTLKISRVEAEDVGVYYCAQGTSVPFTFGQGTKLEIK
B12: H183/L072 VL V51M (antibody, name in Kabat numbering, V domains shown)
VH: QVQLVESGGGLVQPGRSLRLSCAASGFTFSNAWMHWVRQAPGKGLEWVAQIKDKGNAYAAYYAPSVKGRFTISRDDSKNSIYLQMNSLKTEDTAVYYCHYVHYASASTVLPAFGVDAWGQGTTVTVSS
VL: DIVMTQSPLSLPVTPGEPASISCQASQELVHMNRNTYLHWYQQKPGQAPRLLIYKMSNRFPGVPDRFSGSGSGTDFTLKISRVEAEDVGVYYCAQGTSVPFTFGQGTKLEIK
B13: H183/L072 VL V51Q (antibody, name in Kabat numbering, V domains shown)
VH: QVQLVESGGGLVQPGRSLRLSCAASGFTFSNAWMHWVRQAPGKGLEWVAQIKDKGNAYAAYYAPSVKGRFTISRDDSKNSIYLQMNSLKTEDTAVYYCHYVHYASASTVLPAFGVDAWGQGTTVTVSS
VL: DIVMTQSPLSLPVTPGEPASISCQASQELVHMNRNTYLHWYQQKPGQAPRLLIYKQSNRFPGVPDRFSGSGSGTDFTLKISRVEAEDVGVYYCAQGTSVPFTFGQGTKLEIK
B14: H183/L072 VL V51R (antibody, name in Kabat numbering, V domains shown)
VH: QVQLVESGGGLVQPGRSLRLSCAASGFTFSNAWMHWVRQAPGKGLEWVAQIKDKGNAYAAYYAPSVKGRFTISRDDSKNSIYLQMNSLKTEDTAVYYCHYVHYASASTVLPAFGVDAWGQGTTVTVSS
VL: DIVMTQSPLSLPVTPGEPASISCQASQELVHMNRNTYLHWYQQKPGQAPRLLIYKRSNRFPGVPDRFSGSGSGTDFTLKISRVEAEDVGVYYCAQGTSVPFTFGQGTKLEIK
B15: H183/L072 VL V51S (antibody, name in Kabat numbering, V domains shown)
VH: QVQLVESGGGLVQPGRSLRLSCAASGFTFSNAWMHWVRQAPGKGLEWVAQIKDKGNAYAAYYAPSVKGRFTISRDDSKNSIYLQMNSLKTEDTAVYYCHYVHYASASTVLPAFGVDAWGQGTTVTVSS
VL: DIVMTQSPLSLPVTPGEPASISCQASQELVHMNRNTYLHWYQQKPGQAPRLLIYKSSNRFPGVPDRFSGSGSGTDFTLKISRVEAEDVGVYYCAQGTSVPFTFGQGTKLEIK
B16: H183/L072 VL V51T (antibody, name in Kabat numbering, V domains shown)
VH: QVQLVESGGGLVQPGRSLRLSCAASGFTFSNAWMHWVRQAPGKGLEWVAQIKDKGNAYAAYYAPSVKGRFTISRDDSKNSIYLQMNSLKTEDTAVYYCHYVHYASASTVLPAFGVDAWGQGTTVTVSS
VL: DIVMTQSPLSLPVTPGEPASISCQASQELVHMNRNTYLHWYQQKPGQAPRLLIYKTSNRFPGVPDRFSGSGSGTDFTLKISRVEAEDVGVYYCAQGTSVPFTFGQGTKLEIK
B17: H183/L072 VL V94A (antibody, name in Kabat numbering, V domains shown)
VH: QVQLVESGGGLVQPGRSLRLSCAASGFTFSNAWMHWVRQAPGKGLEWVAQIKDKGNAYAAYYAPSVKGRFTISRDDSKNSIYLQMNSLKTEDTAVYYCHYVHYASASTVLPAFGVDAWGQGTTVTVSS
VL: DIVMTQSPLSLPVTPGEPASISCQASQELVHMNRNTYLHWYQQKPGQAPRLLIYKVSNRFPGVPDRFSGSGSGTDFTLKISRVEAEDVGVYYCAQGTSAPFTFGQGTKLEIK
B18: H183/L072 VL V94D (antibody, name in Kabat numbering, V domains shown)
VH: QVQLVESGGGLVQPGRSLRLSCAASGFTFSNAWMHWVRQAPGKGLEWVAQIKDKGNAYAAYYAPSVKGRFTISRDDSKNSIYLQMNSLKTEDTAVYYCHYVHYASASTVLPAFGVDAWGQGTTVTVSS
VL: DIVMTQSPLSLPVTPGEPASISCQASQELVHMNRNTYLHWYQQKPGQAPRLLIYKVSNRFPGVPDRFSGSGSGTDFTLKISRVEAEDVGVYYCAQGTSDPFTFGQGTKLEIK
B19: H183/L072 VL V94E (antibody, name in Kabat numbering, V domains shown)
VH: QVQLVESGGGLVQPGRSLRLSCAASGFTFSNAWMHWVRQAPGKGLEWVAQIKDKGNAYAAYYAPSVKGRFTISRDDSKNSIYLQMNSLKTEDTAVYYCHYVHYASASTVLPAFGVDAWGQGTTVTVSS
VL: DIVMTQSPLSLPVTPGEPASISCQASQELVHMNRNTYLHWYQQKPGQAPRLLIYKVSNRFPGVPDRFSGSGSGTDFTLKISRVEAEDVGVYYCAQGTSEPFTFGQGTKLEIK
B20: H183/L072 VL V94F (antibody, name in Kabat numbering, V domains shown)
VH: QVQLVESGGGLVQPGRSLRLSCAASGFTFSNAWMHWVRQAPGKGLEWVAQIKDKGNAYAAYYAPSVKGRFTISRDDSKNSIYLQMNSLKTEDTAVYYCHYVHYASASTVLPAFGVDAWGQGTTVTVSS
VL: DIVMTQSPLSLPVTPGEPASISCQASQELVHMNRNTYLHWYQQKPGQAPRLLIYKVSNRFPGVPDRFSGSGSGTDFTLKISRVEAEDVGVYYCAQGTSFPFTFGQGTKLEIK

Target: T1, Human CD3eg linker (human)
T1 construct: Single-chain construct; also called recombinant human CD3
T1 chain: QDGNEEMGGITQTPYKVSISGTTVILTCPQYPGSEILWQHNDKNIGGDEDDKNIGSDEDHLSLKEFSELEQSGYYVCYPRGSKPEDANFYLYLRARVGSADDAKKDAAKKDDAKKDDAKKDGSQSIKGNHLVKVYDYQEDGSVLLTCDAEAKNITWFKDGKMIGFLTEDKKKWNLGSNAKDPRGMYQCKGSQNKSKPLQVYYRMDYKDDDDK
Assay: SPR; fold vs parent H183/L072
For B1, the “fold change of affinity” value was 0.8 fold.
In the case of B2, the “fold change of affinity” value is reported as 0.3 fold.
In the case of B3, the “fold change of affinity” value is reported as 0.5 fold.
With B4 the “fold change of affinity” value was 0.6 fold.
For B5, the “fold change of affinity” value was 0 fold.
B6 was tested, and the “fold change of affinity” value was 0.4 fold.
For B7, the “fold change of affinity” value was 0.4 fold.
In the case of B8, the “fold change of affinity” value is reported as 0.2 fold.
For B9, the “fold change of affinity” value was 1.4 fold.
With B10 the “fold change of affinity” value was 0.8 fold.
B11 was tested, and the “fold change of affinity” value was 0.6 fold.
For B12, the “fold change of affinity” value was 0.5 fold.
For B13, the “fold change of affinity” value was 0.5 fold.
For B14, the “fold change of affinity” value was 0.9 fold.
B15 was tested, and the “fold change of affinity” value was 0.3 fold.
For B16, the “fold change of affinity” value was 0.2 fold.
In the case of B17, the “fold change of affinity” value is reported as 1 fold.
For B18, the “fold change of affinity” value was 0.5 fold.
B19 was tested, and the “fold change of affinity” value was 0.4 fold.
B20 was tested, and the “fold change of affinity” value was 0.2 fold.

Source: US20210388087A1 (Chugai, published 2021)
